Values belong to the binder of their own block, whether it stands above or below them. Non-standard residues stand in square brackets, D forms with d. No end group written: not given here. pT = C[C@@H](OP(=O)(O)O)[C@H](N)C(=O)O; pS = N[C@@H](COP(=O)(O)O)C(=O)O
Tests used:
HLA B*0702 [1] = target: T1, HLA B*0702 (human); experiment: MS of peptides eluted from HLA; L/M column: M
T1 construct: Class I MHC molecule of the cells from which the associated phosphopeptides were detected; also called HLA-B7

HLA-A*0201 [2] = target: T2, HLA-A*0201 (human); experiment: HLA-A2 binding affinity
T2 construct: also called HLA-A2

HLA-A*0201 [3] = target: T2, HLA-A*0201; experiment: competition binding assay on purified HLA-A*0201
HLA-A*0201 [4] = target: T2, HLA-A*0201; experiment: competition with iodinated [..] for purified HLA-A*0201 plus β2M, capture on W6/32 plates
HLA-A*0201 [5] = target: T2, HLA-A*0201; experiment: not described
HLA B*0702 [6] = target: T1, HLA B*0702; experiment: MS of peptides eluted from HLA; L/M column: empty
HLA-B*0702 = target: T3, HLA-B*0702 (human); experiment: HLA-B7 eluate MS; AML1; 3 means 6-25 copies/cell
T3 construct: also called HLA-B7

HLA-A*0201 [7] = target: T2, HLA-A*0201; experiment: HLA-A2 eluate MS; CLL4; 1 means <1 copy/cell
HLA-A*0201 [8] = target: T2, HLA-A*0201; experiment: HLA-A2 eluate MS; CLL2; 1 means <1 copy/cell
HLA-A*0201 [9] = target: T2, HLA-A*0201; experiment: HLA-A2 binding affinity, method not described

binding result (HLA B*0702 [1]): binds
B1: RPAsPAAKL (peptide)
peptide: RPA[pS]PAAKL

fold enhancement of HLA-A2 binding affinity over pS33-βcatenin30-39 (HLA-A*0201 [2]): ~10 fold
fold higher HLA-A*0201 binding affinity than pS33-βcat30 (HLA-A*0201 [3]): 8 fold
IC50 (HLA-A*0201 [4]): 0.041 mg/L
B2: pS33-βcat(V)30 (YLDsGIHSGV) (peptide)
peptide: YLD[pS]GIHSGV
notes: also called pS33-βcatenin30-39(V); modified phosphopeptide

binding result (HLA-A*0201 [5]): no binding
B3: IRS2 phosphopeptide RVApSPTSGVKR (peptide)
peptide: RVA[pS]PTSGVKR

binding result (HLA B*0702 [6]): binds
B4: RPVsPFQEL (peptide)
peptide: RPV[pS]PFQEL

binding result (HLA-B*0702): binds
B5: GFI1 phosphopeptide QPRsPGPDYSL (peptide)
peptide: QPR[pS]PGPDYSL

binding result (HLA-A*0201 [5]): no binding
B6: IRS2 phosphopeptide RVAsPTSGVK (peptide)
peptide: RVA[pS]PTSGVK
notes: also called RVAk

binding result (HLA-A*0201 [7]): binds
B7: N4BP2 phosphopeptide KMDsFLDMQL (peptide)
peptide: KMD[pS]FLDMQL

binding result (HLA-A*0201 [8]): binds
B8: NCOR2 phosphopeptide KAKsPAPGL (peptide)
peptide: KAK[pS]PAPGL

binding result (HLA-A*0201 [9]): binds
B9: BCAR3 phosphopeptide IMDRtPEKL (peptide)
peptide: IMDR[pT]PEKL
notes: also called natural BCAR3pT130
